# Assay results: article PMC3635990, “Vpu Binds Directly to Tetherin and Displaces It from Nascent Virions” (PLoS Pathogens, 2013)
# Substitutions are numbered along the chain they refer to. Names and notes keep the numbering of the source.
# B1: Tetherin^CC/SS-I46C-HA (natural protein)
# chain: MASTSYDYSRVPMEDGDKRSKLLLGIGILVLLIIVILGVPLIIFTCKANSEACRDGLRAVMECRNVTHLLQQELTEAQKGFQDVEAQAATCNHTVMALMASLDAEKAQGQKKVEELEGEITTLNHKLQDASAEVERLRRENQVLSVRIADKKYYPSSQDSS
# notes: Tetherin (Bst2/CD317/HM1.24), human; also called TetherinI46C; Teth^CC/SS-I46C-HA; source: HEK293T, co-transfected, in cells and lysate
# B2: Tetherin^CC/SS-T45C-HA (natural protein)
# chain: B1 chain with T45C, C46I
# notes: Tetherin (Bst2/CD317/HM1.24), human; also called TetherinT45C; source: HEK293T, co-transfected, in cells and lysate
# Target: the molecule itself
# Test: cross-linking; unfractionated whole cell lysates of the oxidised, co-transfected 293T cells of Figure 1B; non-reducing SDS-PAGE (Bio-Rad), Western blot; monomer to dimer
row,Protein,stoichiometry N
1,B1,2
2,B2,2
